Values belong to the binder of their own block, whether it stands above or below them.
What was measured:
[1] = target: T1, BCMA on CHOS cells stably expressing BCMA (CHOS-BCMA) (UniProt Q02223 1-184); assay: flow cytometry on CHOS-BCMA cells, PE anti-human IgG detection
T1 construct: whole, on cells; also called CHOS-BCMA cells
T1 sequence (looked up): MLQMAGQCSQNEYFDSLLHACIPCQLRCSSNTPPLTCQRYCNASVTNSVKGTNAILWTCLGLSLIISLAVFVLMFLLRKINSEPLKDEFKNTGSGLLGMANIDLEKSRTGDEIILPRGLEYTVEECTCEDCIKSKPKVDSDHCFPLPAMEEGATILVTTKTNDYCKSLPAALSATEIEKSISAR
Procedure: (§1) With human myeloma U266 cells as well as CHOS cells (CHOS-BCMA) stably expressing BCMA constructed by genetic engineering technology as representative cell models, the binding of BCMA on the cell surface to SG1116 was analyzed by flow cytometry. Cells at the logarithmic growth phase were collected, adjusted to a cell density of 5×10⁶ cells/mL, and precooled on ice. The SG1116 antibody was diluted with pre-cooled normal saline containing 2% FBS to 20 μg/ml. 100 μl of cells were taken and added into an equal volume of the above diluted SG1116 antibody, and reacted in dark at 4° C. for 30 min. At the end of the reaction, they were washed twice with pre-cooled normal saline containing 2% FBS (6000 rpm, 45 s). A secondary antibody PE mouse anti-human IgG (BD Pharmingen) was diluted with pre-cooled normal saline containing 2% FBS at a ratio of 1:5. 100 μl of cells were taken and resuspended, and reacted in dark at 4° C. for 30 min. At the end of the reaction, they were washed twice with pre-cooled normal saline containing 2% FBS (6000 rpm, 45 s). The cells were resuspended with 400 μl of 1% (v/v) paraformaldehyde. The binding ability of the antibody to the antigen on the cell surface was analyzed with a flow cytometer (BD Calibur).

[2] = target: T2, recombinant BCMA-His (ACRO Biosystems) (UniProt Q02223 1-54); assay: SPR (BIACORE), antibody captured by anti-human IgG, BCMA as mobile phase 0.15625-20 nM
T2 construct: also called target antigen BCMA; antigen BCMA; not shown: His tag
T2 sequence (looked up): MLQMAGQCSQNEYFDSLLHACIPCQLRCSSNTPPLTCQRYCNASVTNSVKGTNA
Procedure: The antibody affinity was analyzed with BIACORE biomacromolecular interaction analyzer (GE Co.). Anti-human IgG antibodies (purchased from GE) were coupled on a chip, and utilized to capture the SG1116 antibody, of which the concentration was set as 3 μg/mL, and the sampling time was 120 seconds; with the antigen BCMA as the mobile phase, a gradient of 8 concentrations (0.15625, 0.3125, 0.625, 1.25, 2.5, 5, 10, 20 nM) was used, and the binding time was 120 seconds; the dissociation time was 300 seconds; each antibody was regenerated using 3 M of magnesium chloride (purchased from GE) for a time period of 30 seconds.

[3] = target: T3, BCMA on the surface of human myeloma U266 cells (human, UniProt Q02223 1-184); assay: cell-based or functional assay
T3 sequence (looked up): T1 sequence (looked up)

[4] = target: T1, BCMA on CHOS cells stably expressing …; assay: cell-based or functional assay
[5] = target: T3, BCMA on the surface of human myeloma …; assay: flow cytometry on U266 cells, PE anti-human IgG detection
Procedure: as §1

[6] = target: T2, recombinant BCMA-His (ACRO Biosystems); assay: ELISA, BCMA-His coated at 1 µg/ml, anti-human IgG HRP detection
Procedure: ELISA strips were coated with the target antigen BCMA-His at 1 μg/ml, overnight at 4° C. After washing with PBST, 10% of fetal calf serum was added for blocking at 37° C. for 1 hour. Different concentrations of the antibody SG1116 was added to react at 37° C. for 1 hour. After washing with PBST, horseradish peroxidase-labeled goat anti-human IgG secondary antibody (Goat anti human ([…]), thermo Fisher Scientific) was added to react at 37° C. for 30 minutes. The plate was washed with PBST repeatedly for 5 times, and patted on absorbent paper so as to dry the remaining droplets as much as possible. Each well was added with […] TMB (eBioscience), placed in dark at room temperature (20±5° C.) for 1.5 min. Each well was added with 100 μl of 2N H₂SO₄ stop solution to terminate the reaction of the substrate. The OD values at 450 nm were read with a Microplate reader. The binding ability of the antibody to the target antigen BCMA was analyzed.

[7] = target: T4, CD19 (Sino Biological Inc.) (UniProt P15391 20-291); assay: ELISA, proteins coated at 1 ug/ml, HRP goat anti-human IgG, OD450
T4 construct: Specificity control
T4 sequence (looked up): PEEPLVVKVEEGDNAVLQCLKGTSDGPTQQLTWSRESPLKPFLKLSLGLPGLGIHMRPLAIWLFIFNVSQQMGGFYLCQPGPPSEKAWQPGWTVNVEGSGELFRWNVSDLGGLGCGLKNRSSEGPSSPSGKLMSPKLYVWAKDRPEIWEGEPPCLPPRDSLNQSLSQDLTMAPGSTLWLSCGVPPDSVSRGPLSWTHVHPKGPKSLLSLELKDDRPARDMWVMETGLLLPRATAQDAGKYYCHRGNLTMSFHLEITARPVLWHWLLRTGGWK
Procedure: (§2) ELISA strips were coated with milk (Beijing Biomed Biotech Co., Ltd.), BSA (BOVOGEN), CD19 (Sino Biological Inc.), TROP2 (Sino Biological Inc.), BCMA (ACRO Biosystems), CD47 (Sino Biological Inc.), CD38 (Sino Biological Inc.), Gas6 (R&D) and various proteins as well as AXL (ACRO Biosystems), respectively, at 1 μg/ml, overnight at 4° C. After washing with PBST, 10% of fetal calf serum was added for blocking at 37° C. for 1 hour. The antibody SG1116 was added to react at 37° C. for 1 hour. After washing with PBST, horseradish peroxidase-labeled goat anti-human IgG secondary antibody (Goat anti human (HRP), Thermo Fisher Scientific) was added to react at room temperature for 30 minutes. The plate was washed with PBST repeatedly for 5 times, and patted on absorbent paper so as to dry the remaining droplets as much as possible. Each well was added with 100 μl TMB (eBioscience, #85-00-420), placed in dark at room temperature ([…]) for 1.5 min. Each well was added with 100 μl of 2N H₂SO₄ stop solution to terminate the reaction of the substrate. The OD values at 450 nm were read with a Microplate reader. The binding ability of the antibody to protein was analyzed.

[8] = target: T5, BSA (BOVOGEN) (UniProt P02769 25-607); assay: as above
T5 construct: Specificity control
T5 sequence (P02769 25-607 limits assumed): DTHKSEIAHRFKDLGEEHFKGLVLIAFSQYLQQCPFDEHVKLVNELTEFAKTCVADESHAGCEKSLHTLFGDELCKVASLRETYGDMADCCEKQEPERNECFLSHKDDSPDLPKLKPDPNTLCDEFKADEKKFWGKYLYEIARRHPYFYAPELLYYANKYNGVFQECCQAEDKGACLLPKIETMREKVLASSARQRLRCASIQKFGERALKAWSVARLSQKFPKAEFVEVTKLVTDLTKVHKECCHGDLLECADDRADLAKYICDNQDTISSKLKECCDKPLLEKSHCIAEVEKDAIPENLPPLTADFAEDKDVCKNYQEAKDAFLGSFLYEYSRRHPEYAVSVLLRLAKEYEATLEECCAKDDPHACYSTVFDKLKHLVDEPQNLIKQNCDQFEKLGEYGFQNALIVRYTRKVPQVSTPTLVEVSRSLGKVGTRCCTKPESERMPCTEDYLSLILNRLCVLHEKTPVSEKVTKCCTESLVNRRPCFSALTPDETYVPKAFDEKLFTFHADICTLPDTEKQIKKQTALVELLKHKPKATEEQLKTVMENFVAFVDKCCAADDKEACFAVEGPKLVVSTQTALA
Procedure: as §2

[9] = target: T6, Gas6 (R&D) (UniProt Q14393 49-678, limits assumed); assay: as above
T6 construct: Specificity control
T6 sequence (looked up): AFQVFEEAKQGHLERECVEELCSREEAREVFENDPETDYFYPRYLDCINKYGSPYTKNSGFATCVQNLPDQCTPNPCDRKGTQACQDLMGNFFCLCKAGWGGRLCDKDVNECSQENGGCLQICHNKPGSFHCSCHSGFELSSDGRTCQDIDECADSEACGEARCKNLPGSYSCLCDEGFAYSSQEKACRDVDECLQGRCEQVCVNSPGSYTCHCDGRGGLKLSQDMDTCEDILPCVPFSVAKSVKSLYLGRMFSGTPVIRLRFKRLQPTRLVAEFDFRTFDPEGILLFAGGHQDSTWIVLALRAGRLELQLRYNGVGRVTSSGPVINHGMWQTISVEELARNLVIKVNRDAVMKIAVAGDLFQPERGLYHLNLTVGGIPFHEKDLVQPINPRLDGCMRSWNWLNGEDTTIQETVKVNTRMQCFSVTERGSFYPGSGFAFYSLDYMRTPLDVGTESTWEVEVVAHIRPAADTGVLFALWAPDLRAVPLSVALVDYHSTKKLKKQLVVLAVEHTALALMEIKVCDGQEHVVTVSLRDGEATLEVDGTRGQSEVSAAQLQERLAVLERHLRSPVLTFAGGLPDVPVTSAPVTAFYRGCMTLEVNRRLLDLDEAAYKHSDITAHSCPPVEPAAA
Procedure: as §2

[10] = target: T7, CD47 (Sino Biological Inc.) (UniProt Q08722 19-139); assay: as above
T7 construct: Specificity control
T7 sequence (Q08722 19-139 limits assumed): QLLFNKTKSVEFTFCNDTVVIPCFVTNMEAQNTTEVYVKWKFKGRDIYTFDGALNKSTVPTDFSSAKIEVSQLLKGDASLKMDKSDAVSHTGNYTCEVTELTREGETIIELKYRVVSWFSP
Procedure: as §2

[11] = target: T8, TROP2 (Sino Biological Inc.) (UniProt P09758 27-274); assay: as above
T8 construct: Specificity control
T8 sequence (looked up): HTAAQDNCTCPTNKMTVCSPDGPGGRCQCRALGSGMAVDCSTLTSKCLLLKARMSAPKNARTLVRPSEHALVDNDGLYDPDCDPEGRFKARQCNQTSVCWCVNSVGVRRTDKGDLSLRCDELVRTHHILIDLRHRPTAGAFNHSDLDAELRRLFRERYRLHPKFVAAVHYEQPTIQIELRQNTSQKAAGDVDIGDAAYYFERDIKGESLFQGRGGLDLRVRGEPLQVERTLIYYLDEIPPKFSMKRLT
Procedure: as §2

[12] = target: T9, AXL (ACRO Biosystems) (UniProt P30530 33-449, limits assumed); assay: as above
T9 construct: Specificity control
T9 sequence (looked up): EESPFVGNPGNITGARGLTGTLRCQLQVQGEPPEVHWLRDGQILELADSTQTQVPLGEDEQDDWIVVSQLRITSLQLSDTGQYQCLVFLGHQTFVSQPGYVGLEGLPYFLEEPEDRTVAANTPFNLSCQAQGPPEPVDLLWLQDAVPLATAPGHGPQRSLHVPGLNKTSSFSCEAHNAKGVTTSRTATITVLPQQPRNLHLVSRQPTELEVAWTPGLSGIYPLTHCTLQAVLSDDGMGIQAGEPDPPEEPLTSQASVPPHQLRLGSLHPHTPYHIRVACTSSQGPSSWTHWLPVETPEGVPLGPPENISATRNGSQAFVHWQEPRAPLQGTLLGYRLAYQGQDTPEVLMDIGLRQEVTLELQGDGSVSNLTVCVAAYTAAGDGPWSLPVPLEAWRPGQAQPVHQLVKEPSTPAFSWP
Procedure: as §2

[13] = target: T10, CD38 (Sino Biological Inc.) (UniProt P28907 43-300); assay: as above
T10 construct: Specificity control
T10 sequence (looked up): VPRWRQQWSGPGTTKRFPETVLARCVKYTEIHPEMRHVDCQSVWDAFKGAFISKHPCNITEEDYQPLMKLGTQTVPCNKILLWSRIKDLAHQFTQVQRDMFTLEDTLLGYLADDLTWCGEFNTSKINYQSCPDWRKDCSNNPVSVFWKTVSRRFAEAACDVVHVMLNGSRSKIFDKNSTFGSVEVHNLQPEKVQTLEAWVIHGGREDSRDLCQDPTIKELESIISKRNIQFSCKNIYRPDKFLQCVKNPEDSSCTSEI
Procedure: as §2

EC50 [1]: 0.622 µg/mL
Kd [2]: 1.39 nM
koff [2]: 0.0171 s⁻¹
kon [2]: 1.23e+07 M⁻¹ s⁻¹
internalization efficiency EC50 (flow cytometry, surface MFI at 4°C against 37°C) [3]: 0.178 µg/mL
internalization efficiency EC50 (flow cytometry, surface MFI at 4°C against 37°C) [4]: 0.00327 µg/mL
EC50 [5]: 4.29 µg/mL
EC50 [6]: 0.0565 µg/mL
binding result [7]: no binding
binding result [8]: no binding
binding result [9]: no binding
binding result [10]: no binding
binding result [11]: no binding
binding result [12]: no binding
binding result [13]: no binding
B1: SG1116 antibody (antibody, human IgG1, V domains shown)
VH: QVQLVQSGPELKKPGETVKISCKASGYTFSRYSMNWVRQAPGKGLEWMGRINTGSGAPIYADDFKGRFTFSVDTSASTAYLVINNLKSEDTASYFCSNDYNYSLDHWGQGTAVTVSS
VL: DIVLTQSPPSLAMSLGKRATISCRASESVTILGSHLIYWYQQKPGQPPTLLIQLASNVQTGVPARFSGSGSRTDFTLTIDPVEEDDVAVYYCLQSRTIPRTFGGGTKLEIK
notes: also called antibody SG1116; SGT116

IC50 of inhibition of proliferation (CCK-8, 72 hours) [3]: 0.347 nM
B2: immunoconjugate SG1116-DM1 (antibody, V domains shown)
VH: B1 VH
VL: B1 VL
modifications: maytansine derivative DM1 linked through SMCC; conjugation residues and chain not stated
